According to paper PMC7547064, “High-resolution cryo-EM structure of urease from the pathogen Yersinia enterocolitica” (Nature Communications, 2020):

B1: Yersinia enterocolitica urease ureC protein (enzyme)
chain: MPQISRQEYAGLFGPTTGDKIRLGDTNLFIEIEKDLRGYGEESVYGGGKSLRDGMGANNHLTRDNGVLDLVITNVTIVDARLGVIKADVGIRDGKIAGIGKSGNPGVMDGVTPGMVVGVSTDAISGEHLILTAAGIDSHIHLISPQQAYHALSNGVATFFGGGIGPTDGTNGTTVTPGPWNIRQMLRSVEGLPVNVGILGKGNSYGRGPLLEQAIAGVVGYKVHEDWGATANALRHSLRMADEMDIQVSVHTDSLNECGYVEDTIDAFEGRTIHTFHTEGAGGGHAPDIIRVASQPNVLPSSTNPTLPYGVNSQAELFDMIMVCHNLNPNVPADVSFAESRVRPETIAAENVLHDMGVISMFSSDSQAMGRVGENWLRVMQTANAMKASRGKLPEDAPGNDNFRVLRYVAKITINPAIAQGVSHVIGSVEVGKMADLVLWDPRFFGAKPKMVIKGGMINWAAMGDPNASLPTPQPVFYRPMFGAMGKTMQDTCVTFVSQAALDDGVKEKAGLDRQVIAVKNCRTISKHDLVRNDQTPNIEVDPETFAVKVDGVHATCEPIDTAAMNQRYFFG
modifications: carbamylated Lys222
notes: urease chain ureC of Yersinia enterocolitica; residues 2-327 and 335-572 were built in the cryo-EM model; Native enzyme purified from the bacterium, with two Ni2+ ions in the active site; also called α-subunit containing the active site; source: purified from Y. enterocolitica cultures (Sephacryl S-300, Mono Q, SEC)
B2: Yersinia enterocolitica urease ureA protein (natural protein)
chain: MQLTPREVEKLMIYTLSDVAFKRKARGLKLNYPEAVSIITETAMEGARDGKSVEDVMKEASKVLTKDDVMDGVADLIPNVQVEAIFTDGSRLVTVHDPIK
notes: urease chain ureA of Yersinia enterocolitica; all residues of ureA (1-100) were built in the cryo-EM model; Native enzyme purified from the bacterium; source: purified from Y. enterocolitica cultures (Sephacryl S-300, Mono Q, SEC)
B3: Yersinia enterocolitica urease ureB protein (natural protein)
chain: MSTKTNSTKATSEKTDSLKTNRGTKSSAGYSDQNIPLGGCILADTPITFNENKPVTKVKVRNTGDRPIQVGSHFHFFEANRALEFDRAAAYGKRLNISSTTAIRFEPGDETEVPLIPFGGKQTLYGFNNLVDGWTGEGVVPNSERPDKLEAIRRAAERGFKSSK
notes: urease chain ureB of Yersinia enterocolitica; residues 31-162 were built in the cryo-EM model; the N-terminal extension was too disordered to be modelled; Native enzyme purified from the bacterium; source: purified from Y. enterocolitica cultures (Sephacryl S-300, Mono Q, SEC)
B4: Y. enterocolitica urease hetero-trimer formed by the three protein chains (ureA, ureB, ureC) (complex)
chain 1: B2 chain
chain 2: B3 chain
chain 3: B1 chain
modifications: carbamylated Lys222
notes: urease chain ureA of Yersinia enterocolitica, as m1; residues 1-100 built; urease chain ureB of Yersinia enterocolitica, as m2; residues 31-162 built; urease chain ureC of Yersinia enterocolitica, as m3; residues 2-327 and 335-572 built; The asymmetric unit holds one copy each of ureA, ureB and ureC; Twelve such units form the holoenzyme, [[αβγ]3]4, with tetrahedral symmetry; also called basic …

Experiments:
[1] = target: the molecule itself; assay: cryo-EM structure; single-particle cryo-EM of purified urease at 0.39 mg/ml, frozen in a buffer of pH 7.0; tetrahedral (T) symmetry imposed; map at 1.98 Å; no substrate or inhibitor
[2] = target: B1; assay: as above; conditions: both partners purified

B1
binding result [1]: binds

B2
binding result [1]: binds
binding result [2]: binds

B3
binding result [1]: binds
binding result [2]: binds

B4
stoichiometry N [1]: 12
